For three substances, activity results are on record in patent US11401512.

What all share (assay): cell_activity
Series [1] concerns 71728 ZFN (right, albumin) F3 m5Q; FokI P478S (synthetic).
Series [2] relates to 47898-FLAG ZFN (right, albumin) (synthetic).
For series [3], the system named is 71557 ZFN (left, albumin) F1 m5Q, F3 m5Q; FokI N542D (synthetic).
Series [4] relates to SBS47171-FLAG ZFN (left, albumin) (synthetic).
Setting [5] is: off-target, pair 71557/71728, AAV 600K MOI.
The mark [6] stands for this setting: off-target, pair 47171/47898, AAV 600K MOI.

For “CCTATCCATTGCACTATGCTTTATTTAA (double strand) [albumin right ZFN half-site]”, the activity in series [1] (with 71557, primary human hepatocytes, AAV 600K MOI, day 10) was 44.2 % indels; in series [2] (with 47171, primary human hepatocytes, AAV 600K MOI, day 10) it was 25.4 % indels.

In the case of SMCHD1 off-target site, the activity in series [1] (setting [5]) worked out at 0.34 % indels; in series [3] (setting [5]), 0.34 % indels; in series [4] (setting [6]), 0.36 % indels; in series [2] (setting [6]), 0.36 % indels.

Consider “TTTGGGATAGTTATGAATTCAATCTTCA (double strand) [albumin left ZFN half-site (A/T allele)]”, for which the activity in series [3] (with 71728, primary human hepatocytes, AAV 600K MOI, day 10) was found to be 44.2 % indels; in series [4] (with 47898, primary human hepatocytes, AAV 600K MOI, day 10), 25.4 % indels.
